B1: Unconventional myosin-VI (Homo sapiens), Q9UM54 (parent)
chain: MEDGKPVWAPHPTDGFQMGNIVDIGPDSLTIEPLNQKGKTFLALINQVFPAEEDSKKDVEDNCSLMYLNEATLLHNIKVRYSKDRIYTYVANILIAVNPYFDIPKIYSSEAIKSYQGKSLGTRPPHVFAIADKAFRDMKVLKMSQSIIVSGESGAGKTENTKFVLRYLTESYGTGQDIDDRIVEANPLLEAFGNAKTVRNNNSSRFGKFVEIHFNEKSSVVGGFVSHYLLEKSRICVQGKEERNYHIFYRLCAGASEDIREKLHLSSPDNFRYLNRGCTRYFANKETDKQILQNRKSPEYLKAGSMKDPLLDDHGDFIRMCTAMKKIGLDDEEKLDLFRVVAGVLHLGNIDFEEAGSTSGGCNLKNKSAQSLEYCAELLGLDQDDLRVSLTTRVMLTTAGGTKGTVIKVPLKVEQANNARDALAKTVYSHLFDHVVNRVNQCFPFETSSYFIGVLDIAGFEYFEHNSFEQFCINYCNEKLQQFFNERILKEEQELYQKEGLGVNEVHYVDNQDCIDLIEAKLVGILDILDEENRLPQPSDQHFTSAVHQKHKDHFRLTIPRKSKLAVHRNIRDDEGFIIRHFAGAVCYETTQFVEKNNDALHMSLESLICESRDKFIRELFESSTNNNKDTKQKAGKLSFISVGNKFKTQLNLLLDKLRSTGASFIRCIKPNLKMTSHHFEGAQILSQLQCSGMVSVLDLMQGGYPSRASFHELYNMYKKYMPDKLARLDPRLFCKALFKALGLNENDYKFGLTKVFFRPGKFAEFDQIMKSDPDHLAELVKRVNHWLTCSRWKKVQWCSLSVIKLKNKIKYRAEACIKMQKTIRMWLCKRRHKPRIDGLVKVGTLKKRLDKFNEVVSVLKDGKPEMNKQIKNLEISIDTLMAKIKSTMMTQEQIQKEYDALVKSSEELLSALQKKKQQEEEAERLRRIQEEMEKERKRREEDEKRRRKEEEERRMKLEMEAKRKQEEEERKKREDDEKRIQAEVEAQLARQKEEESQQQAVLEQERRDRELALRIAQSEAELISDEAQADLALRRSLDSYPVSKNDGTRPKMTPEQMAKEMSEFLSRGPAVLATKAAAGTKKYDLSKWKYAELRDTINTSCDIELLAACREEFHRRLKVYHAWKSKNKKRNTETEQRAPKSVTDYDFAPFLNNSPQQNPAAQIPARQREIEMNRQQRFFRIPFIRPADQYKDPQSKKKGWWYAHFDGPWIARQMELHPDKPPILLVAGKDDMEMCELNLEETGLTRKRGAEILPRQFEEIWERCGGIQYLQNAIESRQARPTYATAMLQSLLK
partner: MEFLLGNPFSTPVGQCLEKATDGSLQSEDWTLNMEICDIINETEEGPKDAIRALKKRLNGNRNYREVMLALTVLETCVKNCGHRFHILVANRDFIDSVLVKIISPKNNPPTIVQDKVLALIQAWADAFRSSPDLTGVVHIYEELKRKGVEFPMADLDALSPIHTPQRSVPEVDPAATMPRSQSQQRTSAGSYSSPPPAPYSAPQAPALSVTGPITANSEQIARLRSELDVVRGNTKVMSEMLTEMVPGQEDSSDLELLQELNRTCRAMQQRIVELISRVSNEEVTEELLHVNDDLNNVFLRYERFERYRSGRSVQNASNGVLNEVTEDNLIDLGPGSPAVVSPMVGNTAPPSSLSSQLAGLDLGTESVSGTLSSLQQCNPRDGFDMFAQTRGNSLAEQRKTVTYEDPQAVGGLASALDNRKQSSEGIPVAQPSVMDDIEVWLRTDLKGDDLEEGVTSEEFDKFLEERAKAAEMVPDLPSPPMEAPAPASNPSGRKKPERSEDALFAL
B2: Unconventional myosin-VI (Homo sapiens), Q9UM54 (parent)
chain: B1 chain

Variants of B1 are the subject of the first assay. The conditions noted are these: with tm1l2_human TOM1L2, Q6ZVM7.
Turning to W1202L, the “effect of a mutation on the interaction” value is listed as “disrupting interaction strength”.

Variants of B2 are the subject of a further assay. Particulars: with TOM1, O60784-1.
Chain of TOM1, O60784-1 (O60784 whole entry): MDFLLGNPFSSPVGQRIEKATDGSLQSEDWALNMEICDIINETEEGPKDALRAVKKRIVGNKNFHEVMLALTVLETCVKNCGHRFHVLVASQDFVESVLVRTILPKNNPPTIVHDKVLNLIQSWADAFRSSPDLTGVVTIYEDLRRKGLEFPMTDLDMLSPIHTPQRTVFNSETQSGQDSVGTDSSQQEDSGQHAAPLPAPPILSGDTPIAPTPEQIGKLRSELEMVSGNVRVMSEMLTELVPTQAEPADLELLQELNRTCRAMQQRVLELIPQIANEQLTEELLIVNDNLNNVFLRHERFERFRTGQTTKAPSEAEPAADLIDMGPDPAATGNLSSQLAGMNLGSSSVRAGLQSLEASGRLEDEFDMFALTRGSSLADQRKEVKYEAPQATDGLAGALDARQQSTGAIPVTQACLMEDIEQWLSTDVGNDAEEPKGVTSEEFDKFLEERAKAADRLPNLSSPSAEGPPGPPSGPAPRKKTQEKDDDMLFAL
With W1202L, the “effect of a mutation on the interaction” value is listed as “disrupting interaction strength”.

The record behind these values is IntAct's records for PubMed 23023224.
